The values that follow come from US20260151494A1 (ARO BIOTHERAPEUTICS, published 2026).

Assay [1] addresses T1, human CD71 extracellular domain (human, UniProt P02786 89-760).
T1 construct: also called hCD71; human CD71-ECD
Nature of the assay: primary ELISA. Note: test concentration or dose not given here. Background: In an ELISA, binding on a coated surface is turned into a signal by an enzyme label.

Assay [2] deals with T2, apical domain of cynomolgus CD71 (cynomolgus, UniProt A0A2K5X958 189-383).
T2 construct: domain: apical domain; also called Cyno apical domain
T2 sequence (A0A2K5X958 entry or part of it): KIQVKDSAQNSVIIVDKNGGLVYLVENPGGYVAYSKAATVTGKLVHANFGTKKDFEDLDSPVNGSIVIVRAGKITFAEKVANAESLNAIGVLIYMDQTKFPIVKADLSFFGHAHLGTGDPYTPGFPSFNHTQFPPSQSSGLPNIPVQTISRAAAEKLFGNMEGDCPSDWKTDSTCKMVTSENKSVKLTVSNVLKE
The assay is described as follows: primary ELISA. Note: test concentration or dose not given here.

Assay [3] concerns the target T1, human CD71 extracellular domain. The assay is described as follows: primary ELISA, signal ratio to HSA.
Assay [4] has as its target T2, apical domain of cynomolgus CD71. Nature of the assay: primary ELISA, signal ratio to HSA.
The target in assay [5] is T3, human CD71 extracellular domain (CD71-ECD) (human, UniProt P02786 89-760).
T3 construct: also called hCD71; human CD71-ECD
T3 sequence (P02786 89-760): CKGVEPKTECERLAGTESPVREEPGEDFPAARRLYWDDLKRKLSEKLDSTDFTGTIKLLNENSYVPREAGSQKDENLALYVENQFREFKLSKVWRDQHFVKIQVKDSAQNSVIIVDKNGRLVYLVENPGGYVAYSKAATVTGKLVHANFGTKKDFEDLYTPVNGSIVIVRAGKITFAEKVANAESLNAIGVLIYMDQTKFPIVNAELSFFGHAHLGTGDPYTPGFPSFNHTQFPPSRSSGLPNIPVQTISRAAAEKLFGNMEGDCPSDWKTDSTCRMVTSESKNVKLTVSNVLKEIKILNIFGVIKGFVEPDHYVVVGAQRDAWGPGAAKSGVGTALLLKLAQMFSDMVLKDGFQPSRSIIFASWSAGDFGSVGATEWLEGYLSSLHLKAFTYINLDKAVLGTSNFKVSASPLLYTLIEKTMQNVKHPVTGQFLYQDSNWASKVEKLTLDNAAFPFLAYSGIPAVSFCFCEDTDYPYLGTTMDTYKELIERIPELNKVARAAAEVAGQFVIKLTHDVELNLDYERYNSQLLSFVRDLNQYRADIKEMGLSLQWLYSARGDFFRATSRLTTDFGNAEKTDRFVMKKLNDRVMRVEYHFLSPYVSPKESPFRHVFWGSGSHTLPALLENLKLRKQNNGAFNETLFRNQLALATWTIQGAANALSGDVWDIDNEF
Nature of the assay: primary ELISA. Note: test concentration or dose not given here.

Assay [6] has as its target T3, human CD71 extracellular domain …. The assay is described as follows: primary ELISA, RLU ratio to HSA.

T1 sequence (P02786 89-760): as above

B1: CD71-binding FN3 domain of SEQ ID NO: 162 (designed binder)
chain: MSLPAPKNLVVSRVTEDSARLSWTALDAAFDSFEISYWEHTFNGEAIILFVPGSERSYDLTGLKPGTEYYVTIGGVKGGAWSPPLWAEFTT
As for B1, the figures for the RLU in assay [1] and in assay [2] were 4.46e+06 RLU and 5.49e+06 RLU, respectively. For the same molecule, the “hCD71:HSA” value in assay [3] amounted to 240. For the same molecule, the “Cyno apical domain:HSA” value in assay [4] turned out to be 296.

B2: CD71-binding FN3 domain of SEQ ID NO: 198 (designed binder)
chain: MSLPAPKNLVVSRVTEDSARLSWTAPDAAFDSFLIGYTEYSVYGEAIVLTVPGSERSYDLTGLKPGTEYTVWIMGVKGGIKSTPLSAISTT
On to B2, for which the RLU in assay [1] worked out at 3.62e+06 RLU; in assay [2], 4.95e+06 RLU. For the same molecule, in assay [3], the “hCD71:HSA” value is 84. For the same molecule, in assay [4], the “Cyno apical domain:HSA” value amounted to 116.

B3: CD71-binding FN3 domain of SEQ ID NO: 204 (designed binder)
chain: MSLPAPKNLVVSRVTEDSARLSWTAPDAAFDSFLIQYDEWPTYGEAIVLTVPGSERSYDLTGLKPGTEYLVEIVGVKGGNLSGPLSAIFTT
For B3, the values for the RLU in assay [1] and in assay [2] were 4.09e+06 RLU and 5.46e+06 RLU, respectively. Besides, the “hCD71:HSA” value in assay [3] amounted to 243. Also, the “Cyno apical domain:HSA” value in assay [4] is 325.

B4: CD71-binding FN3 domain of SEQ ID NO: 163 (designed binder)
chain: MSLPAPKNLVVSRVTEDSARLSWTAPDAAFDSFFIGYLEPQPPGEVIHLYVPGSERSYDLTGLKPGTEYVVFIGGVKGGVWSVPLSAIFTT
As to B4, the RLU in assay [1] amounted to 1.5e+06 RLU; in assay [2] it was 5.14e+06 RLU. The “hCD71:HSA” value in assay [3] stood at 65. Moreover, the “Cyno apical domain:HSA” value in assay [4] came out at 225.

B5: CD71-binding FN3 domain of SEQ ID NO: 161 (designed binder)
chain: MSLPAPKNLVVSRVTEDSARLSWTAPDAAFDSFFIGYLEPQPPGEAIVLTVPGSERSYDLTGLKPGTEYNVTIQGVKGGFPSEPLVAHFTT
On to B5, for which the figures for the RLU in assay [1] and in assay [2] were 5.73e+06 RLU and 6.09e+06 RLU, respectively. Also, in assay [3], the “hCD71:HSA” value is 13. For the same molecule, the “Cyno apical domain:HSA” value in assay [4] turned out to be 14.

B6: CD71-binding FN3 domain of SEQ ID NO: 179 (designed binder)
chain: MSLPAPKNLVVSRVTEDSARLSWTAPDAAFDSFFIGYLEPQPPGEAITLLVPGSERSYDLTGLKPGTEYNVTIQGVKGGFPSHPLVATTTT
As for B6, the RLU in assay [1] was 4.11e+06 RLU; in assay [2], 4.71e+06 RLU. Besides, the “hCD71:HSA” value in assay [3] was 39. Moreover, the “Cyno apical domain:HSA” value in assay [4] came to 45.

B7: CD71-binding FN3 domain of SEQ ID NO: 197 (designed binder)
chain: MSLPAPKNLVVSRVTEDSARLSWTAPDAAFDSFFIGYLEPQPPGEAISLLVPGSERSYDLTGLKPGTEYNVTIQGVKGGFPSEPLHAIFTT
For the molecule B7, the RLU in assay [1] is 3.4e+06 RLU; in assay [2] it was 6.23e+06 RLU. Moreover, the “hCD71:HSA” value in assay [3] was determined as 36. Also, the “Cyno apical domain:HSA” value in assay [4] was determined as 66.

B8: CD71-binding FN3 domain of SEQ ID NO: 180 (designed binder)
chain: MSLPAPKNLVVSRVTEDSARLSWTAPDAAFDSFFIGYLEPQPPGEAISLYVPGSERSYDLTGLKPGTEYNVTIQGVKGGFPSEPLIANFTT
Regarding B8, the results for the RLU in assay [1] and in assay [2] were 6.68e+06 RLU and 6.09e+06 RLU, respectively. Further, the “hCD71:HSA” value in assay [3] worked out at 275. Further, the “Cyno apical domain:HSA” value in assay [4] is 251.

B9: CD71-binding FN3 domain of SEQ ID NO: 168 (designed binder)
chain: MSLPAPKNLVVSRVTEDSARLSWTAPDAAFDSFIIGYLEPQPPDEAIALYVPGSERSYDLTGLKPGTEYNVTIQGVKGGFPSLPLVATFTT
On to B9, for which the RLU in assay [1] amounted to 3.94e+06 RLU; in assay [2], 4.84e+06 RLU. In addition, in assay [3], the “hCD71:HSA” value stood at 32. For the same molecule, the “Cyno apical domain:HSA” value in assay [4] amounted to 39.

B10: CD71-binding FN3 domain of SEQ ID NO: 167 (designed binder)
chain: MSLPAPKNLVVSRVTEDSARLSWTAPDAAFDSFFIGYLEPQPPGEAIVLTVPGSERSYDLTGLKPGTEYNVTIQGVKGGFPSVPLSAAFTT
Turning to B10, the values for the RLU in assay [1] and in assay [2] were 4.72e+06 RLU and 5.93e+06 RLU, respectively. In addition, in assay [3], the “hCD71:HSA” value was 66. In addition, in assay [4], the “Cyno apical domain:HSA” value amounted to 83.

B11: CD71-binding FN3 domain SEQ ID NO: 235 (designed binder)
chain: MSLPAPKNLVVSRVTEDSARLSWTAPDAAFDSFEIVYAEPVRFGEAIVLTVPGSERSYDLTGLKPGTEYWVQIGGVKGGNWSAPLSAIFTT
The molecule B11 had an RLU in assay [5] of 3.8e+06 RLU. Moreover, in assay [6], the “hCD71:HSA” value came to 376.

B12: CD71-binding FN3 domain SEQ ID NO: 248 (designed binder)
chain: MSLPAPKNLVVSRVTEDSARLSWTAPDAAFDSFEIGYFENLYLGEAIVLTVPGSERSYDLTGLKPGTEYVVFIGGVKGGDFSPPLSAIFTT
On to B12, for which, in assay [5], the RLU is 3.49e+06 RLU. Besides, the “hCD71:HSA” value in assay [6] came to 375.

B13: CD71-binding FN3 domain SEQ ID NO: 251 (designed binder)
chain: MSLPAPKNLVVSRVTEDSARLSWTAPDAAFDSFEIGYFENLYLGEAIVLTVPGSERSYDLTGLKPGTEYWVQIGGVKGGNWSAPLVATFTT
On to B13, for which, in assay [5], the RLU worked out at 4.09e+06 RLU. Also, the “hCD71:HSA” value in assay [6] turned out to be 724.

B14: CD71-binding FN3 domain SEQ ID NO: 237 (designed binder)
chain: MSLPAPKNLVVSRVTEDSARLSWTAPDAAFDSFEIAYFERTWFGEAIVLTVPGSERSYDLTGLKPGTEYWVQIGGVKGGDWSKPLSAIFTT
As to B14, the RLU in assay [5] is 3.98e+06 RLU. Also, the “hCD71:HSA” value in assay [6] came to 535.

B15: CD71-binding FN3 domain SEQ ID NO: 256 (designed binder)
chain: MSLPVPKNLVVSRVTEDSARLSWTAPDAAFDSFEIGYFENLYLGEAIVLTVPGSERSYDLTGLKPGTEYWVQIGGVKGGNWSAPLSAIFTT
Consider B15, for which the RLU in assay [5] came out at 2.39e+06 RLU. Moreover, the “hCD71:HSA” value in assay [6] was determined as 193.

B16: CD71-binding FN3 domain SEQ ID NO: 249 (designed binder)
chain: MSLPAPKNLVVSRVTEDSARLSWTAPDAAFDSFEIGYWENAYRGEAIVLTVPGSERSYDLTGLKPGTEYVVFIGGVKGGVWSVPLSAIFTT
For the molecule B16, the RLU in assay [5] was 3.02e+06 RLU. Further, the “hCD71:HSA” value in assay [6] turned out to be 350.

B17: CD71-binding FN3 domain SEQ ID NO: 254 (designed binder)
chain: MSLPAPKNLVVSRVTEDSARLSWTAPDAAFDSFEIGYFENLYLGEAIVLWVPGSERSYDLTGLKPGTEYWVQIGGVKGGNWSAPLSAIFTT
In turn, B17 came in with an RLU in assay [5] of 3.29e+06 RLU. The “hCD71:HSA” value in assay [6] was 289.

B18: CD71-binding FN3 domain SEQ ID NO: 239 (designed binder)
chain: MSLPAPKNLVVSRVTEDSARLSWTAPDAAFDSFEIVYQENSAYGEAIVLTVPGSERSYDLTGLKPGTEYWVQIGGVKGGNWSAPLSAIFTT
In turn, B18 returned an RLU in assay [5] of 1.88e+06 RLU. In assay [6], the “hCD71:HSA” value worked out at 154.

B19: CD71-binding FN3 domain SEQ ID NO: 242 (designed binder)
chain: MSLPAPKNLVVSRVTEDSARLSWTAPDAAFDSFEIGYFENLYLGEAIVLTVPGSERSYDLTGLKPGTKYWVQIGGVKGGNWSAPLSAIFTT
The molecule B19 registered an RLU in assay [5] of 1.61e+06 RLU. In addition, the “hCD71:HSA” value in assay [6] turned out to be 165.

B20: CD71-binding FN3 domain SEQ ID NO: 250 (designed binder)
chain: MSLPAPKNLVVSRVTEDSARLSWTAPDAAFDSFEIGYFENLYLGEAIVLTVPGSERSYDLTGLKPGTEYWVQIGGVNGGNWSAPLSAIFTT
B20 returned an RLU in assay [5] of 3.41e+06 RLU. Further, the “hCD71:HSA” value in assay [6] came to 140.

B21: CD71-binding FN3 domain SEQ ID NO: 236 (designed binder)
chain: MSLPAPKNLVVSRVTEDSARLSWTEPDAAFDSFEIGYFENLYLGEAIVLTVPGSERSYDLTGLKPGTEYWVQIGGVKGGNWSAPLSAIFTT
For B21, the RLU in assay [5] turned out to be 3.29e+06 RLU. Further, the “hCD71:HSA” value in assay [6] turned out to be 101.

B22: CD71-binding FN3 domain SEQ ID NO: 255 (designed binder)
chain: MSLPAPKNLVVSRVTEDSARLSWTTPDAAFDSFEIAYFEIAWLGEAIVLTVPGSERSYDLTGLKPGTEYWVQIGGVKGGAYSTPLSAIFTT
With B22, the RLU in assay [5] was 3.73e+06 RLU. Moreover, in assay [6], the “hCD71:HSA” value was found to be 90.

B23: CD71-binding FN3 domain SEQ ID NO: 247 (designed binder)
chain: MSLPAPKNLVVSRVTEDSARLSWTAPDAAFDSFEIGYFENLYLGEAIVLTVPGSERSYDLTGLKPGTEYWVQIGGVKGGEWSAPLSAIFTT
For B23, the RLU in assay [5] was 2.89e+06 RLU. Besides, the “hCD71:HSA” value in assay [6] is 442.

B24: CD71-binding FN3 domain SEQ ID NO: 246 (designed binder)
chain: MSLPAPKNLVVSRVTEDSARLSWTAPDAAFDSFEIAYQELSLWGEAIVLTVPGSERSYDLTGLKPGTEYYVHIGGVKGGIWSSPLSAYFTT
For B24, the RLU in assay [5] was determined as 3.68e+06 RLU. Moreover, the “hCD71:HSA” value in assay [6] stood at 362.

B25: CD71-binding FN3 domain SEQ ID NO: 244 (designed binder)
chain: MSLPAPKNLVVSRVTEDSARLSWTAPDAAFDSFEIGYFENLYLGEAIVLTVPGSERSYDLTGLKPGTEYVVFIGGVKGGEYSIPLSAIFTT
B25 yielded an RLU in assay [5] of 3.25e+06 RLU. Also, the “hCD71:HSA” value in assay [6] came out at 392.

B26: CD71-binding FN3 domain SEQ ID NO: 238 (designed binder)
chain: MSLPAPKNLVVSRVTEDSARLSWTAPDAAFDSFEIGYFENDYFGEAIVLTVPGSERSYDLTGLKPGTEYVVFIGGVKGGKWSAPLSAIFTT
For the molecule B26, in assay [5], the RLU turned out to be 3.86e+06 RLU. Moreover, in assay [6], the “hCD71:HSA” value amounted to 576.

B27: CD71-binding FN3 domain of SEQ ID NO: 218 (designed binder)
chain: MSLPAPKNLVVSRVTEDSARLSWTAPDAAFDSFEIAYHEDDFYGEAIALLVPGSERSYDLTGLKPGTEYIVHIGGVKGGFFSSPLYAWFTT
For B27, the RLU in assay [1] turned out to be 2.42e+06 RLU; in assay [2], 4.72e+06 RLU. In assay [3], the “hCD71:HSA” value stood at 77. Besides, the “Cyno apical domain:HSA” value in assay [4] was 149.

B28: CD71-binding FN3 domain of SEQ ID NO: 178 (designed binder)
chain: MGSLPAPKNLVVSRVTEDSARLSWTAPDAAFDSFFIGYLEPQPPGEAISLYVPGSERSYDLTGLKPGTEYNVTIQGVKGGFPSDPLVAHFTT
For the molecule B28, the RLU in assay [1] is 7.01e+06 RLU; in assay [2], 5.99e+06 RLU. Also, in assay [3], the “hCD71:HSA” value is 319. Moreover, the “Cyno apical domain:HSA” value in assay [4] turned out to be 272.
